Data taken from IntAct's records for PubMed 25416956.

B1: Chorion-specific transcription factor GCMb (Homo sapiens), O75603 (parent)
chain: MPAAAVQEAVGVCSYGMQLSWDINDPQMPQELALFDQFREWPDGYVRFIYSSDEKKAQRHLSGWAMRNTNNHNGHILKKSCLGVVVCTQACTLPDGSRLQLRPAICDKARLKQQKKACPNCHSALELIPCRGHSGYPVTNFWRLDGNAIFFQAKGVHDHPRPESKSETEARRSAIKRQMASFYQPQKKRIRESEAEENQDSSGHFSNIPPLENPEDFDIVTETSFPIPGQPCPSFPKSDVYKATCDLATFQGDKMPPFQKYSSPRIYLPRPPCSYELANPGYTNSSPYPTLYKDSTSIPNDTDWVHLNTLQCNVNSYSSYERSFDFTNKQHGWKPALGKPSLVERTNHGQFQAMATRPYYNPELPCRYLTTPPPGAPALQTVITTTTKVSYQAYQPPAMKYSDSVREVKSLSSCNYAPEDTGMSVYPEPWGPPVTVTRAASPSGPPPMKIAGDCRAIRPTVAIPHEPVSSRTDEAETWDVCLSGLGSAVSYSDRVGPFFTYNNEDF
partner: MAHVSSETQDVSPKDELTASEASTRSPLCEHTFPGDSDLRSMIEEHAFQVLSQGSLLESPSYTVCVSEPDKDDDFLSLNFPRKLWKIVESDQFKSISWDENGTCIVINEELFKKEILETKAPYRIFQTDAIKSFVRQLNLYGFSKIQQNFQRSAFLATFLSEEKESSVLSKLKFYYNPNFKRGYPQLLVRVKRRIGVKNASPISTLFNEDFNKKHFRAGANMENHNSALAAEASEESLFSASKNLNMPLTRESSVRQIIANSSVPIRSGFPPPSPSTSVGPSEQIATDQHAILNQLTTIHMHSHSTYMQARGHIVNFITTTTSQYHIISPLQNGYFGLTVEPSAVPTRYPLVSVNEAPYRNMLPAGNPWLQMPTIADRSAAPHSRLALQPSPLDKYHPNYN
B2: Keratin, type II cytoskeletal 2 epidermal (Homo sapiens), P35908 (parent)
chain: MSCQISCKSRGRGGGGGGFRGFSSGSAVVSGGSRRSTSSFSCLSRHGGGGGGFGGGGFGSRSLVGLGGTKSISISVAGGGGGFGAAGGFGGRGGGFGGGSSFGGGSGFSGGGFGGGGFGGGRFGGFGGPGGVGGLGGPGGFGPGGYPGGIHEVSVNQSLLQPLNVKVDPEIQNVKAQEREQIKTLNNKFASFIDKVRFLEQQNQVLQTKWELLQQMNVGTRPINLEPIFQGYIDSLKRYLDGLTAERTSQNSELNNMQDLVEDYKKKYEDEINKRTAAENDFVTLKKDVDNAYMIKVELQSKVDLLNQEIEFLKVLYDAEISQIHQSVTDTNVILSMDNSRNLDLDSIIAEVKAQYEEIAQRSKEEAEALYHSKYEELQVTVGRHGDSLKEIKIEISELNRVIQRLQGEIAHVKKQCKNVQDAIADAEQRGEHALKDARNKLNDLEEALQQAKEDLARLLRDYQELMNVKLALDVEIATYRKLLEGEECRMSGDLSSNVTVSVTSSTISSNVASKAAFGGSGGRGSSSGGGYSSGSSSYGSGGRQSGSRGGSGGGGSISGGGYGSGGGSGGRYGSGGGSKGGSISGGGYGSGGGKHSSGGGSRGGSSSGGGYGSGGGGSSSVKGSSGEAFGSSVTFSFR
partner: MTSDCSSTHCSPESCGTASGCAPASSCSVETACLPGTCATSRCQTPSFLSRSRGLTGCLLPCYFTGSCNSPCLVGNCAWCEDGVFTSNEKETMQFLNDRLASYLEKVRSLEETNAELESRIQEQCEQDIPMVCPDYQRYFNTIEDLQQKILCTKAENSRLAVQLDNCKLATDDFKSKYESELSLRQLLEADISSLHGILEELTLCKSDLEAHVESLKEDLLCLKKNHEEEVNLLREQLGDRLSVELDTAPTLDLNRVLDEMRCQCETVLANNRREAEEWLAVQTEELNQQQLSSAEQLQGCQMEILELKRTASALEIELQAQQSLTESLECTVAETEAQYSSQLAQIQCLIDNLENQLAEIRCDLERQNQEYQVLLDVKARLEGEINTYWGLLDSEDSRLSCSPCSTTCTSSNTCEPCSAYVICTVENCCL
B3: Forkhead box protein P3 (Homo sapiens), Q9BZS1 (parent)
chain: MPNPRPGKPSAPSLALGPSPGASPSWRAAPKASDLLGARGPGGTFQGRDLRGGAHASSSSLNPMPPSQLQLPTLPLVMVAPSGARLGPLPHLQALLQDRPHFMHQLSTVDAHARTPVLQVHPLESPAMISLTPPTTATGVFSLKARPGLPPGINVASLEWVSREPALLCTFPNPSAPRKDSTLSAVPQSSYPLLANGVCKWPGCEKVFEEPEDFLKHCQADHLLDEKGRAQCLLQREMVQSLEQQLVLEKEKLSAMQAHLAGKMALTKASSVASSDKGSCCIVAAGSQGPVVPAWSGPREAPDSLFAVRRHLWGSHGNSTFPEFLHNMDYFKFHNMRPPFTYATLIRWAILEAPEKQRTLNEIYHWFTRMFAFFRNHPATWKNAIRHNLSLHKCFVRVESEKGAVWTVDELEFRKKRSQRPSRCSNPTPGP
B4: TERF1-interacting nuclear factor 2 (Homo sapiens), Q9BSI4 (parent)
chain: MATPLVAGPAALRFAAAASWQVVRGRCVEHFPRVLEFLRSLRAVAPGLVRYRHHERLCMGLKAKVVVELILQGRPWAQVLKALNHHFPESGPIVRDPKATKQDLRKILEAQETFYQQVKQLSEAPVDLASKLQELEQEYGEPFLAAMEKLLFEYLCQLEKALPTPQAQQLQDVLSWMQPGVSITSSLAWRQYGVDMGWLLPECSVTDSVNLAEPMEQNPPQQQRLALHNPLPKAKPGTHLPQGPSSRTHPEPLAGRHFNLAPLGRRRVQSQWASTRGGHKERPTVMLFPFRNLGSPTQVISKPESKEEHAIYTADLAMGTRAASTGKSKSPCQTLGGRALKENPVDLPATEQKENCLDCYMDPLRLSLLPPRARKPVCPPSLCSSVITIGDLVLDSDEEENGQGEGKESLENYQKTKFDTLIPTLCEYLPPSGHGAIPVSSCDCRDSSRPL
B5: Inactive peptidyl-prolyl cis-trans isomerase FKBP6 (Homo sapiens), O75344 (parent)
chain: MGGSALNQGVLEGDDAPGQSLYERLSQRMLDISGDRGVLKDVIREGAGDLVAPDASVLVKYSGYLEHMDRPFDSNYFRKTPRLMKLGEDITLWGMELGLLSMRRGELARFLFKPNYAYGTLGCPPLIPPNTTVLFEIELLDFLDCAESDKFCALSAEQQDQFPLQKVLKVAATEREFGNYLFRQNRFYDAKVRYKRALLLLRRRSAPPEEQHLVEAAKLPVLLNLSFTYLKLDRPTIALCYGEQALIIDQKNAKALFRCGQACLLLTEYQKARDFLVRAQKEQPFNHDINNELKKLASCYRDYVDKEKEMWHRMFAPCGDGSTAGES
partner: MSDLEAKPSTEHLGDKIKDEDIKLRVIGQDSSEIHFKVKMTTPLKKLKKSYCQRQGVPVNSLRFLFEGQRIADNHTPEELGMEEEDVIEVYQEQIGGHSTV

Variants of: B1
Details: with hsfy1_human HSFY1, Q96LI6

| effect of a mutation on the interaction | Variant |
| --- | --- |
| disrupting interaction | G63S |

Variants of: B2
Details: with KRT40, Q6A162

| effect of a mutation on the interaction | Variant |
| --- | --- |
| disrupting interaction | I477N |

Variants of: B2
Details: with KRT40, Q6A162
Remark: another data set of the same source

| effect of a mutation on the interaction | Variant |
| --- | --- |
| disrupting interaction | L484P |

Variants of: B3
Details: with pr20c_human PRR20C

| effect of a mutation on the interaction | Variant |
| --- | --- |
| disrupting interaction | I363V |

Variants of: B3
Details: with rbpms_human RBPMS

| effect of a mutation on the interaction | Variant |
| --- | --- |
| disrupting interaction | I363V |

Variants of: B3
Details: with pr20c_human PRR20C
Remark: another data set of the same source

| effect of a mutation on the interaction | Variant |
| --- | --- |
| disrupting interaction | Q70H |

Variants of: B3
Details: with rbpms_human RBPMS
Remark: another data set of the same source

| effect of a mutation on the interaction | Variant |
| --- | --- |
| disrupting interaction | Q70H |

Variants of: B4
Details: with acd_human ACD

| effect of a mutation on the interaction | Variant |
| --- | --- |
| disrupting interaction | P236S |

Variants of: B5
Details: with sumo5_human SUMO1P1, G2XKQ0

| effect of a mutation on the interaction | Variant |
| --- | --- |
| disrupting interaction | F72L |
